Test results published in patent US20220177587A1, “METHODS AND USES OF VARIANT CD80 FUSION PROTEINS AND RELATED CONSTRUCTS” (Alpine Immune Sciences, Inc., priority 2018, published 2022).
Numbering of substitutions follows the chain as printed. Numbers in names are those of the source.

B1: L70Q/A91G/N144D (protein)
chain: VIHVTKEVKEVATLSCGHNVSVEELAQTRIYWQKEKKMVLTMMSGDMNIWPEYKNRTIFDITNNLSIVIQALRPSDEGTYECVVLKYEKDGFKREHLAEVTLSVKADFPTPSISDFEIPTSNIRRIICSTSGGFPEPHLSWLEDGEELNAINTTVSQDPETELYAVSSKLDFNMTTNHSFMCLIKYGHLRVNQTFNWNTTKQEHFPDN
modifications: CD80 v122 ECD
B2: L70Q/A91G/T130A (protein)
chain: B1 chain with T130A, D144N
modifications: CD80 v2 ECD
B3: L70Q/A91G/I118A/T120S/T130A/K169E (protein)
chain: B1 chain with I118A, T120S, T130A, D144N, K169E
modifications: CD80 v123 ECD
B4: V20L/L70Q/A91S/I118V/T120S/T130A (protein)
chain: B1 chain with V20L, I118V, T120S, T130A, D144N
modifications: CD80 v127 ECD
B5: V4M/L70Q/A91G/I118V/T120S/T130A/K169E (protein)
chain: B1 chain with V4M, I118V, T120S, T130A, D144N, K169E
modifications: CD80 v124 ECD
B6: A91G/T120S/I118V/T130A (protein)
chain: B1 chain with Q70L, I118V, T120S, T130A, D144N
B7: L70Q/E81A/A91G/I118V/T120S/I127T/T130A (protein)
chain: B1 chain with E81A, I118V, T120S, I127T, T130A, D144N
modifications: CD80 v131 ECD
B8: L70R/A91G/I118V/T120S/T130A/T199S (protein)
chain: B1 chain with Q70R, I118V, T120S, T130A, D144N, T199S
modifications: CD80 v130 ECD
B9: L70Q/A91G/E117G/I118V/T120S/T130A (protein)
chain: B1 chain with E117G, I118V, T120S, T130A, D144N
modifications: CD80 v128 ECD
B10: S44P/L70Q/A91G/T130A (protein)
chain: B1 chain with S44P, T130A, D144N
B11: L70Q/A91G/I118V/T120S/T130A/K169E (protein)
chain: B1 chain with I118V, T120S, T130A, D144N, K169E
modifications: CD80 v125 ECD
B12: E35D/M47I: variant CD80 IgV-Fc, IgV SEQ ID NO:177 (protein)
chain: VIHVTKEVKEVATLSCGHNVSVEELAQTRIYWQKDKKMVLTMMSGDINIWPEYKNRTIFDITNNLSIVILALRPSDEGTYECVVLKYEKDAFKREHLAEVTLSVKAD
B13: I30T/L70R: variant CD80 IgV-Fc, IgV SEQ ID NO:154 (protein)
chain: B12 chain with I30T, D35E, I47M, L70R
B14: L70Q/A71D: variant CD80 IgV-Fc, IgV SEQ ID NO:220 (protein)
chain: B12 chain with D35E, I47M, L70Q, A71D
B15: V68M/L70M/A71D/E95K: variant CD80 IgV-Fc, IgV SEQ ID NO:210 (protein)
chain: B12 chain with D35E, I47M, V68M, L70M, A71D, E95K
B16: T41S/T57I/L70R: variant CD80 IgV-Fc, IgV SEQ ID NO:213 (protein)
chain: B12 chain with D35E, T41S, I47M, T57I, L70R
B17: E35D/M43I/A71D: variant CD80 IgV-Fc, IgV SEQ ID NO:212 (protein)
chain: B12 chain with M43I, I47M, A71D
B18: A12T/E24D/E35D/D46V/I61V/L72P/E95V: variant CD80 IgV-Fc, IgV SEQ ID NO:217 (protein)
chain: B12 chain with A12T, E24D, D46V, I47M, I61V, L72P, E95V
B19: Y31H/E35D/T41S/V68L/K93R/R94W: variant CD80 IgV-Fc, IgV SEQ ID NO:223 (protein)
chain: B12 chain with Y31H, T41S, I47M, V68L, K93R, R94W
B20: D46E/A71D: variant CD80 IgV-Fc, IgV SEQ ID NO:222 (protein)
chain: B12 chain with D35E, D46E, I47M, A71D
B21: H18Y/A71D/L72P/E88V: variant CD80 IgV-Fc, IgV SEQ ID NO:214 (protein)
chain: B12 chain with H18Y, D35E, I47M, A71D, L72P, E88V
B22: V22L/E35D/M43L/A71G/D76H: variant CD80 IgV-Fc, IgV SEQ ID NO:218 (protein)
chain: B12 chain with V22L, M43L, I47M, A71G, D76H
B23: N55I/T57I/I69F: variant CD80 IgV-Fc, IgV SEQ ID NO:211 (protein)
chain: B12 chain with D35E, I47M, N55I, T57I, I69F
B24: V20I/A71D: variant CD80 IgV-Fc, IgV SEQ ID NO:215 (protein)
chain: B12 chain with V20I, D35E, I47M, A71D

tested on: human pan T cells; test: Anti-CD3 coimmobilization assay, IFN-gamma; type: cell-based; settings: Table E32; variant ECD-Fc coimmobilized with anti-CD3; culture supernatant
In short: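 IFN-gamma in 3-day culture supernatants, quantified by ELISA, reflects costimulation. Human pan T cells or BC3 clone (100,000/well, Ex-Vivo 15) were placed on wells pre-adsorbed overnight with rCD80.Fc variants (1–80 nM) together with anti-CD3 OKT3 (1 nM or 4 nM), unbound protein removed.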

Molecule | Coimmobilization with anti CD3 IFN-gamma [pg/mL]
B1 | 93
B2 | 99
B3 | 86
B4 | 195
B5 | 139
B6 | 276
B7 | 98
B8 | 105
B9 | 98
B10 | 142
B11 | 104

tested on: allogeneic CD4+ T cells; test: Mixed Lymphocyte Reaction (MLR), IFN-gamma; type: cell-based, human; settings: Table E32; variant ECD-Fc in MLR assay; culture supernatant
Experimental: Soluble rCD80.Fc bioactivity was tested in a human Mixed Lymphocyte Reaction (MLR). Human primary dendritic cells (DC) were generated by culturing monocytes isolated from PBMC (BenTech Bio, USA) in vitro for 7 days with 500U/ml rIL-4 (R&D Systems, USA) and 250 U/ml rGM-CSF (R&D Systems, USA) in Ex-Vivo 15 media (Lonza, Switzerland). 10,000 matured DC and 100,000 purified allogeneic CD4+ T cells (BenTech Bio, USA) were co-cultured with variant CD80 Fc fusion proteins and controls in 96 well round bottom plates in 200 μl final volume of Ex-Vivo 15 media. On day 5, IFN-gamma secretion in culture supernatants was analyzed using the Human IFN-gamma Duoset ELISA kit (R&D Systems, USA). Optical density was measured by VMax ELISA Microplate Reader (Molecular Devices, USA) and quantitated against titrated rIFN-gamma standard included in the IFN-gamma Duo-set kit (R&D Systems, USA).

Molecule | MLR IFN-gamma levels [pg/mL]
B1 | 716
B2 | 752
B3 | 741
B4 | 710
B5 | 991
B6 | 714
B7 | 772
B8 | 702
B9 | 736
B10 | 854
B11 | 741

target: T1, CD28 (Homo sapiens, UniProt P10747); test: Jurkat/IL2 + CHO/OKT3 +/- PD-L1 reporter assay: PD-L1-dependent CD28 costimulation; type: cell-based; set-up: host or cells: Jurkat cells expressing an IL-2-luciferase reporter; settings: CHO/OKT3/PD-L1 aAPC; 0.6 nM; luciferase signal
In short: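 Readout is relative luminescence from lysed cocultures: test protein given 15 min at room temperature to Jurkat cells before adding CHO artificial APCs displaying OKT3 alone or OKT3 plus PD-L1, then 5 h at 37 °C, 5% CO2.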

PD-L1-Dependent CD28 Costimulation, +PD-L1, 0.6 nM | Molecule
1047 | B12

same assay, conditions: CHO/OKT3/PD-L1 aAPC; 50 nM; luciferase signal

PD-L1-Dependent CD28 Costimulation, +PD-L1, 50 nM | Molecule
3778 | B12

same assay, conditions: CHO/OKT3 aAPC, no PD-L1; 50 nM; luciferase signal

PD-L1-Dependent CD28 Costimulation, No PD-L1, 50 nM | Molecule
894 | B12

same assay, conditions: CHO/OKT3 aAPC, no PD-L1; […]; luciferase signal

PD-L1-Dependent CD28 Costimulation, No PD-L1, […] | Molecule
637 | B12

target: T1, CD28; test: Jurkat/IL2 reporter assay: blockade of CD28 costimulation (plate-bound anti-CD3/CD86-Fc); type: cell-based; set-up: host or cells: Jurkat cells expressing an IL-2-luciferase reporter; settings: Table E5; protein diluted to 40 nM before mixing with cells; 5 hours
Experimental: The day before the assay, the assay plate was prepared. […] The plate was incubated overnight at 4° C. to allow the antibody and CD86-Fc protein to adhere to the surface of the plate. The next day, the wells of the assay plate were washed twice with 150 μL PBS prior to the assay.
Jurkat effector cells expressing IL-2-luciferase reporter were counted and resuspended in assay buffer to a concentration of 2×10^6 cells/mL. 60 μL of the Jurkat cell suspension were then added to the wells containing the CD80-Fc fusion molecules or controls. The cells and CD80 proteins were incubated at room temperature for 15 minutes and then 100 μL of the cell/CD80 protein mixture were transferred/well of the prepared anti-CD3/CD86-Fc assay plate.
The assay plate was briefly spun down (10 seconds at 1200 RPM) and incubated at 37° C. for 5 hours. After the 5 hour incubation, the plate was removed and equilibrated to room temperature for 15 minutes. 100 μL of Bio-Glo (Promega) were added/well of the assay plate, which was then placed on an orbital shaker for 10 minutes. Luminescence was measured with a 1 second per well integration time using a BioTek Cytation 3 luminometer.

Average Relative Luminescence Units | Molecule
1444 Relative Luminescence Units | B12
3236 Relative Luminescence Units | B13
1036 Relative Luminescence Units | B14
2067 Relative Luminescence Units | B15
3641 Relative Luminescence Units | B16
3019 Relative Luminescence Units | B17
2408 Relative Luminescence Units | B18
3678 Relative Luminescence Units | B19
490 Relative Luminescence Units | B20
1354 Relative Luminescence Units | B21
2004 Relative Luminescence Units | B22
1915 Relative Luminescence Units | B23
2165 Relative Luminescence Units | B24
